# Assay results reported in patent US20200407442A1 (WUXI BIOLOGICS IRELAND, published 2020).
# T1: mFc-tagged LAG-3 protein (human, UniProt P18627 30-450)
# T1 construct: also called human LAG-3 ECD with mouse Fc tag
# T1 sequence: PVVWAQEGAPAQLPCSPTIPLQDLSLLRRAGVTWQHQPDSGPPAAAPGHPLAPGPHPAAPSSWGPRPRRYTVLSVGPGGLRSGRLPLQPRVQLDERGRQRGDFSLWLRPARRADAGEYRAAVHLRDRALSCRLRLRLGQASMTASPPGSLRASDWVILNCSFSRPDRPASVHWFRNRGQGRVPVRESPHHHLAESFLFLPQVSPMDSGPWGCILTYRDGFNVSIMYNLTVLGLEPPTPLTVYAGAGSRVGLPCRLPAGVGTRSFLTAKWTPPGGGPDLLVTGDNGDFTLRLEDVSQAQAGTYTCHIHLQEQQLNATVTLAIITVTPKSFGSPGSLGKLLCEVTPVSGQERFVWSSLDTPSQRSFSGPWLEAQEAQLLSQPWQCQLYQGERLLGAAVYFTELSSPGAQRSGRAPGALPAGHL
# T2: human LAG-3 protein (SPR analyte) (human, UniProt P18627 30-450)
# T2 sequence: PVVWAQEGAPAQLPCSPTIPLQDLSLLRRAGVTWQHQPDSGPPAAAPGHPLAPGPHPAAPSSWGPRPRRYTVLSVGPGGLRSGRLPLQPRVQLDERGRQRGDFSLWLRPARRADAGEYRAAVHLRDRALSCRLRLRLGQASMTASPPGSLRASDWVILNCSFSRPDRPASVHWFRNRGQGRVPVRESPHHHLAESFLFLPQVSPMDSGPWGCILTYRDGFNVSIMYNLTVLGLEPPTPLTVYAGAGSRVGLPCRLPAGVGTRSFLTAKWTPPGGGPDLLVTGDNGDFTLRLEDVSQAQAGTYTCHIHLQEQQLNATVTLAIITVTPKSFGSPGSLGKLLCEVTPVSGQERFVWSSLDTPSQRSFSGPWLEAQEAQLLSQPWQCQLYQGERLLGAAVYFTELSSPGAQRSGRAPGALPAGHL
# T3: human LAG-3-ECD.D12.mFc mutant P43A (human, UniProt P18627 37-252)
# T3 construct: Alanine scanning mutant; construct limits as for m26
# T3 chain: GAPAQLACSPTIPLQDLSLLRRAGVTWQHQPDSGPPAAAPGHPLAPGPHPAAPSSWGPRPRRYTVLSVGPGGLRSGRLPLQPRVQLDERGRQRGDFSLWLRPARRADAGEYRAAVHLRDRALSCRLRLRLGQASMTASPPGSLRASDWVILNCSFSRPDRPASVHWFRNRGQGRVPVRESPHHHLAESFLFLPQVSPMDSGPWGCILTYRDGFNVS
# T4: full-length human LAG-3 on cells (human, UniProt P18627 23-525)
# T4 sequence: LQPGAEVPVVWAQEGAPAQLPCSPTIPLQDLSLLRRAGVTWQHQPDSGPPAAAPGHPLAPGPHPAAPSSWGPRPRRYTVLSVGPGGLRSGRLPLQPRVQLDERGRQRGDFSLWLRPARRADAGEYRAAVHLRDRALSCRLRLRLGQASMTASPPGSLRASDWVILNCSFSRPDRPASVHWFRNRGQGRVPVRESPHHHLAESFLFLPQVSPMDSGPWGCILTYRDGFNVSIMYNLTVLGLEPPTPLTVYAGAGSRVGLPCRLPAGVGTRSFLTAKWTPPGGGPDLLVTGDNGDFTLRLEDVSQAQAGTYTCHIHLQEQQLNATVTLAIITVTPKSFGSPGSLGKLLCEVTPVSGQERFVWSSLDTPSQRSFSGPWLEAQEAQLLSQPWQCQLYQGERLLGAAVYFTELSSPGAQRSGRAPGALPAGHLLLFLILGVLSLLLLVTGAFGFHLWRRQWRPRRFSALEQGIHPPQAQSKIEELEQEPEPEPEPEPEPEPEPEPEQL
# B1: 3.40.19-uAb-IgG4L (antibody, V domains shown)
# VH: QLQLQESGPGLVKPSETLSLTCTVSGDSISSTSYYWGWIRQPPGKGLEWIGSFYYSGSTYYNPSLKSRVTISVDTSKNQFSLKLNSVTAADTAVYYCARMQLWSYDVDVWGQGTTVTVSS
# VL: QSALTQPASVSGSPGQSITISCTGTSSDVGGYDYVAWYQQHPGKVPKLMIYDVSERPSGVSNRFSGSKSGNTASLTISGLQAEDEADYYCSSYTSTTTLVVFGGGTKLSVL
# notes: Fully human antibody from OMT rats; IgG4 lambda by its name; also called 3.40.19-uAb-hIgG4L
# B2: 1.53.3-uAb-IgG4k (antibody, V domains shown)
# VH: QVQLQQWGAGLLKPSETLSLTCGVYGGSFSGYYWSWIRQPPGMGLEWIGEINHRGNTNYNPSLKSRVTISEDTSKNQFSLRLSSVTAADTAVYFCTRGEDYSDYDYYGDFWGQGTLVTVSS
# VL: EIVLTQSPATLSLSQGERATLSCRASQSISSYLAWYQQKPGQAPRLLIYAASNRATGIPARFSGSGSGTDFTLTISSLEPEDFAIYYCQQRSNWPLTFGGGTKVEIK
# notes: Fully human antibody from OMT rats; IgG4 kappa by its name
# Assays:
# [1] = biological target: T1, mFc-tagged LAG-3 protein; test: ELISA competition: blocks mFc-tagged LAG-3 binding to coated LSECtin
# Protocol: (§1) 96-well plates were coated with human LSECtin or Galectin-3 at 0.5 μg/mL overnight at 4° C., respectively. Antibodies were serially diluted in 1% BSA-PBS and mixed with mFc-tagged LAG-3 protein. After blocking and washing, the mixture was transferred to the plates and incubated at room temperature for 1 h. The plates were then washed and subsequently incubated with corresponding secondary antibody for 60 min. After washing, TMB substrate was added and the color reaction was stopped by 2M HCl. The absorbance at 450 nm was read using a microplate reader.
# [2] = biological target: T2, human LAG-3 protein (SPR analyte); test: SPR Biacore 8K, antibody captured by anti-human Fc, LAG-3 as analyte
# Protocol: Antibodies were characterized for affinity and binding kinetics to human LAG-3 by SPR assay using Biacore 8K. Goat anti-human Fc was pre-immobilized to a sensor chip (CMS), and anti-LAG-3 antibodies were captured when injected to the chip. Various concentrations of human LAG-3 protein and running buffer were flowed through the sensor chip at a flow rate of 30 μL/min for an association phase of 300 s, followed by 3600 s dissociation. The association and dissociation curve was fit by 1:1 Langmuir binding model using Biacore 8K Evaluation Software.
# [3] = biological target: T3, human LAG-3-ECD.D12.mFc mutant P43A; test: ELISA, antibody coated, LAG-3 D12.mFc mutant in supernatant, normalised to control mutants
# Method in brief: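 Antibody 1.53.3-uAb-IgG4k or 3.40.19-uAb-hIgG4L coated at 2 μg/mL, then exposed to supernatant containing quantified LAG-3 D12.mFc mutants. Detection with HRP anti-mFc (1:5000). Absorbance normalized to mean of control mutants; binding fold change <0.75 set as epitope cutoff.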
# [4] = biological target: T1, mFc-tagged LAG-3 protein; test: FACS competition: blocks mFc-tagged LAG-3 binding to MHC-II on Raji cells
# Protocol: Antibodies were serially diluted in 1% BSA-PBS and incubated with mFc-tagged LAG-3 protein at 4° C. for 30 min. The mixture was transferred into the 96-well plates seeded with Raji cells. Goat anti-mouse IgG Fc-PE antibody was used to detect the binding of LAG-3 protein to Raji cells. The MFI was evaluated by flow cytometry and analyzed by the software FlowJo (version 7.6.1).
# [5] = biological target: T1, mFc-tagged LAG-3 protein; test: ELISA competition: blocks mFc-tagged LAG-3 binding to coated Galectin-3
# Protocol: as §1
# [6] = biological target: T4, full-length human LAG-3 on cells; test: cell-based or functional assay
# [7] = biological target: T5, human CD4 (human, UniProt P01730 26-390, limits assumed); test: ELISA on plate-coated human CD4, OD450
# T5 construct: also called human CD4 protein
# Protocol: Cross-reactivity to human CD4 was measured by ELISA. Plates were coated with human CD4 at 1μg/mL overnight at 4° C. After blocking and washing, 1 μg/mL of LAG-3 antibodies were added to the plates and incubated at room temperature for 1 h. The plates were then washed and subsequently incubated with corresponding secondary antibody for 45 min. After washing, TMB substrate was added and the color reaction was stopped by 2 M HCl. The absorbance at 450 nm was read using a microplate reader.
Binder,EC50 [1],Kd [2],koff [2],kon [2],Fold Change [3],EC50 [4],EC50 [5],"EC50, IL-2 luciferase reporter gene assay (Jurkat cells expressing human LAG-3 with Raji cells and SEE) [6]",binding result [7]
B1,0.51 nM,0.0106 nM,1.11e-05 s⁻¹,1.05e+06 M⁻¹ s⁻¹,0.494,0.67 nM,0.56 nM,0.21 nM,no binding (tested: 66.7 nM)
B2,0.71 nM,0.0505 nM,3.33e-05 s⁻¹,660000 M⁻¹ s⁻¹,–,0.8 nM,0.74 nM,1.07 nM,no binding (tested: 66.7 nM)
